One block for each binder: values may come before it. Numbered stars: 1 amine (or outer) side, 2 acyl side, 3 side chain; on linkers, the order of the positions; unused ones are H or OH. Bridge positions count the residues as written; N and C are the ends. Square brackets hold non-standard residues; d marks the D form. Side chains are listed from the residue outwards. Ends that are not written are not given here. * marks the point of attachment. C20 diacid = O=C(O)CCCCCCCCCCCCCCCCCCC(=O)*; C18 diacid = O=C(O)CCCCCCCCCCCCCCCCC(=O)*; γGlu = O=C(O)[C@H](CCC(=O)[*:2])N[*:1]; Hyp = O=C(O)[C@@H]1C[C@@H](O)CN1; Dab = NCC[C@H](N)C(=O)O; Aib = CC(C)(N)C(=O)O
Key:
[1] = target: T1, human amylin receptor (calcitonin receptor co-expressed with receptor activity modifying protein, RAMP3) (human, UniProt P30988 25-474; O60896 24-148); assay: cell-based or functional assay
T1 sequence (looked up) 1: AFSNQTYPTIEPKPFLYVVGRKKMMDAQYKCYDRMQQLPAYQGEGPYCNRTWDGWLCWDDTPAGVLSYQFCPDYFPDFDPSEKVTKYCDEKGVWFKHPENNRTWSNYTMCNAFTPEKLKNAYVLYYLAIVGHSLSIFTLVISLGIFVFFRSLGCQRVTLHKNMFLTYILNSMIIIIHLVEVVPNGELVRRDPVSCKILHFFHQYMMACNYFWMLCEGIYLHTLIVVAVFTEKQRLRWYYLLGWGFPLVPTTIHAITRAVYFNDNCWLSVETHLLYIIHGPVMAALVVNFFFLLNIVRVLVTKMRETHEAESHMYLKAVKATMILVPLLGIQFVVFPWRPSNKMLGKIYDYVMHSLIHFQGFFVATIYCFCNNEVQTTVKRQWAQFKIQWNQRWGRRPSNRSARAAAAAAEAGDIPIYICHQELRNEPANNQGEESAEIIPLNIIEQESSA
T1 sequence (looked up) 2: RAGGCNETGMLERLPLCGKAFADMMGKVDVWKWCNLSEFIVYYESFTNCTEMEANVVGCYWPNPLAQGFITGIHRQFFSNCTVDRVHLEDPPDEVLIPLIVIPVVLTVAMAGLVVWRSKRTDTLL

[2] = target: T2, human calcitonin receptor (human, UniProt P30988 25-474); assay: cell-based or functional assay
T2 sequence (looked up): T1 sequence (looked up) 1

- EC50 (cAMP production) [1]: 1.2 nM
- Ratio (EC50 hCTR / EC50 hAMYR3) [1]: 8
- EC50 (cAMP production) [2]: 10.2 nM
B1: Peptide 125 (SEQ ID NO: 125) (peptide)
peptide: K([γGlu-γGlu-C20 diacid])CNTATCATQRLANFLVHSS[Aib]NFPAILSPTNVGS[Dab]TY-NH2
modifications: disulfide 2-7; N-terminus assumed
SMILES: CC[C@H](C)[C@H](NC(=O)[C@H](C)NC(=O)[C@@H]1CCCN1C(=O)[C@H](Cc1ccccc1)NC(=O)[C@H](CC(N)=O)NC(=O)C(C)(C)NC(=O)[C@H](CO)NC(=O)[C@H](CO)NC(=O)[C@H](Cc1c[nH]cn1)NC(=O)[C@@H](NC(=O)[C@H](CC(C)C)NC(=O)[C@H](Cc1ccccc1)NC(=O)[C@H](CC(N)=O)NC(=O)[C@H](C)NC(=O)[C@H](CC(C)C)NC(=O)[C@H](CCCNC(=N)N)NC(=O)[C@H](CCC(N)=O)NC(=O)[C@@H](NC(=O)[C@H](C)NC(=O)[C@@H]1CSSC[C@H](NC(=O)[C@@H](N)CCCCNC(=O)CC[C@H](NC(=O)CC[C@H](NC(=O)CCCCCCCCCCCCCCCCCCC(=O)O)C(=O)O)C(=O)O)C(=O)N[C@@H](CC(N)=O)C(=O)N[C@@H]([C@@H](C)O)C(=O)N[C@@H](C)C(=O)N[C@@H]([C@@H](C)O)C(=O)N1)[C@@H](C)O)C(C)C)C(=O)N[C@@H](CC(C)C)C(=O)N[C@@H](CO)C(=O)N1CCC[C@H]1C(=O)N[C@H](C(=O)N[C@@H](CC(N)=O)C(=O)N[C@H](C(=O)NCC(=O)N[C@@H](CO)C(=O)N[C@@H](CCN)C(=O)N[C@H](C(=O)N[C@@H](Cc1ccc(O)cc1)C(N)=O)[C@@H](C)O)C(C)C)[C@@H](C)O

- EC50 (cAMP production) [1]: 0.873 nM
- Ratio (EC50 hCTR / EC50 hAMYR3) [1]: 5
- EC50 (cAMP production) [2]: 4.79 nM
B2: Peptide 123 (SEQ ID NO: 123) (peptide)
peptide: K([γGlu-γGlu-C20 diacid])CNTATCATQRLANFLVHSS[Aib]NFPAILSPT[Dab]VGSNTY-NH2
modifications: disulfide 2-7; N-terminus assumed
SMILES: CC[C@H](C)[C@H](NC(=O)[C@H](C)NC(=O)[C@@H]1CCCN1C(=O)[C@H](Cc1ccccc1)NC(=O)[C@H](CC(N)=O)NC(=O)C(C)(C)NC(=O)[C@H](CO)NC(=O)[C@H](CO)NC(=O)[C@H](Cc1c[nH]cn1)NC(=O)[C@@H](NC(=O)[C@H](CC(C)C)NC(=O)[C@H](Cc1ccccc1)NC(=O)[C@H](CC(N)=O)NC(=O)[C@H](C)NC(=O)[C@H](CC(C)C)NC(=O)[C@H](CCCNC(=N)N)NC(=O)[C@H](CCC(N)=O)NC(=O)[C@@H](NC(=O)[C@H](C)NC(=O)[C@@H]1CSSC[C@H](NC(=O)[C@@H](N)CCCCNC(=O)CC[C@H](NC(=O)CC[C@H](NC(=O)CCCCCCCCCCCCCCCCCCC(=O)O)C(=O)O)C(=O)O)C(=O)N[C@@H](CC(N)=O)C(=O)N[C@@H]([C@@H](C)O)C(=O)N[C@@H](C)C(=O)N[C@@H]([C@@H](C)O)C(=O)N1)[C@@H](C)O)C(C)C)C(=O)N[C@@H](CC(C)C)C(=O)N[C@@H](CO)C(=O)N1CCC[C@H]1C(=O)N[C@H](C(=O)N[C@@H](CCN)C(=O)N[C@H](C(=O)NCC(=O)N[C@@H](CO)C(=O)N[C@@H](CC(N)=O)C(=O)N[C@H](C(=O)N[C@@H](Cc1ccc(O)cc1)C(N)=O)[C@@H](C)O)C(C)C)[C@@H](C)O

- EC50 (cAMP production) [1]: 0.655 nM
- Ratio (EC50 hCTR / EC50 hAMYR3) [1]: 9
- EC50 (cAMP production) [2]: 6.18 nM
B3: Peptide 122 (SEQ ID NO: 122) (peptide)
peptide: K([γGlu-γGlu-C18 diacid])CNTATCATQRLANFLVHSS[Aib]NFPAILSPT[Dab]VGSNTY-NH2
modifications: disulfide 2-7; N-terminus assumed
SMILES: CC[C@H](C)[C@H](NC(=O)[C@H](C)NC(=O)[C@@H]1CCCN1C(=O)[C@H](Cc1ccccc1)NC(=O)[C@H](CC(N)=O)NC(=O)C(C)(C)NC(=O)[C@H](CO)NC(=O)[C@H](CO)NC(=O)[C@H](Cc1c[nH]cn1)NC(=O)[C@@H](NC(=O)[C@H](CC(C)C)NC(=O)[C@H](Cc1ccccc1)NC(=O)[C@H](CC(N)=O)NC(=O)[C@H](C)NC(=O)[C@H](CC(C)C)NC(=O)[C@H](CCCNC(=N)N)NC(=O)[C@H](CCC(N)=O)NC(=O)[C@@H](NC(=O)[C@H](C)NC(=O)[C@@H]1CSSC[C@H](NC(=O)[C@@H](N)CCCCNC(=O)CC[C@H](NC(=O)CC[C@H](NC(=O)CCCCCCCCCCCCCCCCC(=O)O)C(=O)O)C(=O)O)C(=O)N[C@@H](CC(N)=O)C(=O)N[C@@H]([C@@H](C)O)C(=O)N[C@@H](C)C(=O)N[C@@H]([C@@H](C)O)C(=O)N1)[C@@H](C)O)C(C)C)C(=O)N[C@@H](CC(C)C)C(=O)N[C@@H](CO)C(=O)N1CCC[C@H]1C(=O)N[C@H](C(=O)N[C@@H](CCN)C(=O)N[C@H](C(=O)NCC(=O)N[C@@H](CO)C(=O)N[C@@H](CC(N)=O)C(=O)N[C@H](C(=O)N[C@@H](Cc1ccc(O)cc1)C(N)=O)[C@@H](C)O)C(C)C)[C@@H](C)O

- EC50 (cAMP production) [1]: 1.77 nM
- Ratio (EC50 hCTR / EC50 hAMYR3) [1]: 6
- EC50 (cAMP production) [2]: 10.7 nM
B4: Peptide 120 (SEQ ID NO: 120) (peptide)
peptide: K([γGlu-γGlu-C20 diacid])CNAATCATQRLANWLVHSSPNFPAILSPTNVGSNTY-NH2
modifications: disulfide 2-7; N-terminus assumed
SMILES: CC[C@H](C)[C@H](NC(=O)[C@H](C)NC(=O)[C@@H]1CCCN1C(=O)[C@H](Cc1ccccc1)NC(=O)[C@H](CC(N)=O)NC(=O)[C@@H]1CCCN1C(=O)[C@H](CO)NC(=O)[C@H](CO)NC(=O)[C@H](Cc1c[nH]cn1)NC(=O)[C@@H](NC(=O)[C@H](CC(C)C)NC(=O)[C@H](Cc1c[nH]c2ccccc12)NC(=O)[C@H](CC(N)=O)NC(=O)[C@H](C)NC(=O)[C@H](CC(C)C)NC(=O)[C@H](CCCNC(=N)N)NC(=O)[C@H](CCC(N)=O)NC(=O)[C@@H](NC(=O)[C@H](C)NC(=O)[C@@H]1CSSC[C@H](NC(=O)[C@@H](N)CCCCNC(=O)CC[C@H](NC(=O)CC[C@H](NC(=O)CCCCCCCCCCCCCCCCCCC(=O)O)C(=O)O)C(=O)O)C(=O)N[C@@H](CC(N)=O)C(=O)N[C@@H](C)C(=O)N[C@@H](C)C(=O)N[C@@H]([C@@H](C)O)C(=O)N1)[C@@H](C)O)C(C)C)C(=O)N[C@@H](CC(C)C)C(=O)N[C@@H](CO)C(=O)N1CCC[C@H]1C(=O)N[C@H](C(=O)N[C@@H](CC(N)=O)C(=O)N[C@H](C(=O)NCC(=O)N[C@@H](CO)C(=O)N[C@@H](CC(N)=O)C(=O)N[C@H](C(=O)N[C@@H](Cc1ccc(O)cc1)C(N)=O)[C@@H](C)O)C(C)C)[C@@H](C)O

- EC50 (cAMP production) [1]: 1.13 nM
- Ratio (EC50 hCTR / EC50 hAMYR3) [1]: 6
- EC50 (cAMP production) [2]: 6.63 nM
B5: Peptide 124 (SEQ ID NO: 124) (peptide)
peptide: K([γGlu-γGlu-C18 diacid])CNTATCATQRLANFLVHSS[Aib]NFPAILSPTNVGS[Dab]TY-NH2
modifications: disulfide 2-7; N-terminus assumed
SMILES: CC[C@H](C)[C@H](NC(=O)[C@H](C)NC(=O)[C@@H]1CCCN1C(=O)[C@H](Cc1ccccc1)NC(=O)[C@H](CC(N)=O)NC(=O)C(C)(C)NC(=O)[C@H](CO)NC(=O)[C@H](CO)NC(=O)[C@H](Cc1c[nH]cn1)NC(=O)[C@@H](NC(=O)[C@H](CC(C)C)NC(=O)[C@H](Cc1ccccc1)NC(=O)[C@H](CC(N)=O)NC(=O)[C@H](C)NC(=O)[C@H](CC(C)C)NC(=O)[C@H](CCCNC(=N)N)NC(=O)[C@H](CCC(N)=O)NC(=O)[C@@H](NC(=O)[C@H](C)NC(=O)[C@@H]1CSSC[C@H](NC(=O)[C@@H](N)CCCCNC(=O)CC[C@H](NC(=O)CC[C@H](NC(=O)CCCCCCCCCCCCCCCCC(=O)O)C(=O)O)C(=O)O)C(=O)N[C@@H](CC(N)=O)C(=O)N[C@@H]([C@@H](C)O)C(=O)N[C@@H](C)C(=O)N[C@@H]([C@@H](C)O)C(=O)N1)[C@@H](C)O)C(C)C)C(=O)N[C@@H](CC(C)C)C(=O)N[C@@H](CO)C(=O)N1CCC[C@H]1C(=O)N[C@H](C(=O)N[C@@H](CC(N)=O)C(=O)N[C@H](C(=O)NCC(=O)N[C@@H](CO)C(=O)N[C@@H](CCN)C(=O)N[C@H](C(=O)N[C@@H](Cc1ccc(O)cc1)C(N)=O)[C@@H](C)O)C(C)C)[C@@H](C)O

- EC50 (cAMP production) [1]: 1.33 nM
- Ratio (EC50 hCTR / EC50 hAMYR3) [1]: 5
- EC50 (cAMP production) [2]: 6.07 nM
B6: Peptide 121 (SEQ ID NO: 121) (peptide)
peptide: K([γGlu-γGlu-C20 diacid])CNTATCATQRLANFLVHSS[Aib]NF[Hyp]AILSPTNVGSNTY-NH2
modifications: disulfide 2-7; not fully specified; printed as K(γE-γE-C20diacid)[CNTATC]ATQRLANFLVHSS(Aib)NF(Hyp)AILSPTNVGSNTY-amide

Source: patent publication US20220204580A1 (AstraZeneca / MedImmune, published 2022)
